Here are results for one protein from patent US20040214349A1 (MURDOCH CHILDRENS RESEARCH INSTITUTE ROYAL CHILDREN S …, published 2004).

The data set deals with the molecule itself. The data set can be described thus: non-reducing SDS-PAGE of immunoprecipitated His-WARP.

B1: His-tagged full-length mouse WARP expressed in 293-EBNA cells (other)
chain: RSSHHHHHHIERGSTASDPQGDLLFLLDSSASVSHYEFSRVREFVGQLVATMSFGPGALRASLVHVGSQPHTEFTFDQYSSGQAIRDAIRVAPQRMGDTNTGLALAYAKEQLFAEEAGARPGVPKVLVWVTDGGSSDPVGPPMQELKDLGVTIFIVSTGRGNLLELLAAASAPAEKHLHFVDVDDLPIIARELRGSITDAMQPQQLHASEVLSSGFRLSWPPLLTADSGYYVLELVPSGKLATTRRQQLPGNATSWTWTDLDPDTDYEVSLLPESNVHLLRPQHVRVRTLQEEAGPERIVISHARPRSLRVSWAPALGPDSALGYHVQLGPLQGGSLERVEVPAGQNSTTVQGLTPCTTYLVTVTAAFRSGRQRALSAKACTASGARTRAPQSMRPEAGPREP
modifications: N-linked oligosaccharide (one or more; candidate sites Asn264 and Asn359)
notes: also called His-WARP; WARP-His
For B1, the binding result is given as “binds”.
